Test results reported in publication PMC11112410 (Frontiers in Immunology, 2024).

Key:
[1] = molecular target: T1, recombinant Aln g 1.0101 (alder) (alder); experiment: ELISA; IgE inhibition: recombinant allergens (1 µg/ml) coated, pre-incubated with Nb32 (10 µg/ml) or Nb32ILZ (11.5 µg/ml) overnight at 4°C, then patients' sera 1:10; bound IgE detected with AKP-labelled anti-human-IgE antibody; conditions: both partners purified
T1 construct: alder pollen allergen Aln g 1, isoallergen Aln g 1.0101; source: bought: Biomay AG (recombinant)
T1 chain: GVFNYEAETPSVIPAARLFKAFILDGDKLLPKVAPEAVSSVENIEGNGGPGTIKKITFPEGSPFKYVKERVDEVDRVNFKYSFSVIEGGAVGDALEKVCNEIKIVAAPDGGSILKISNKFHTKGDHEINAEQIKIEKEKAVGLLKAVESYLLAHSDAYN

[2] = molecular target: T2, recombinant Cor a 1.0103 (hazel) (Corylus avellana, isoallergen Cor a …, UniProt Q08407, strain); experiment: as above; conditions: both partners purified
T2 construct: source: bought: Biomay AG (recombinant)

[3] = molecular target: T3, recombinant Bet v 1.0101 (birch) (birch); experiment: SPR; Biacore T200, CM5 chip, 25°C; allergens amine-coupled; nanobodies injected in HBS-EP+ (Nb32ILZ 0.172-44 nM, Nb32 0.313-40 nM), multicycle kinetics, 30 min dissociation; printed kd from the 1:1 (Langmuir) binding model for both nanobodies; conditions: both partners purified
T3 construct: major birch pollen allergen Bet v 1, isoallergen Bet v 1.0101; also called major birch pollen allergen; source: bought: Biomay AG (recombinant)
T3 chain: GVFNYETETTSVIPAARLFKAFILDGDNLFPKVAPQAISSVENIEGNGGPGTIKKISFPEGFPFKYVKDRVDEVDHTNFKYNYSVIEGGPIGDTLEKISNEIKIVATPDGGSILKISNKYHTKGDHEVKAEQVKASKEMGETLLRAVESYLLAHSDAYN

[4] = molecular target: T1, recombinant Aln g 1.0101 (alder); experiment: as above; conditions: both partners purified
[5] = molecular target: T2, recombinant Cor a 1.0103 (hazel); experiment: as above; conditions: both partners purified
[6] = molecular target: T4, recombinant Phl p 5.0101 (timothy grass) (timothy grass); experiment: ELISA; recombinant allergens or unrelated antigens (2 µg/ml in bicarbonate buffer) coated on the plate; nanobodies 2 µg/ml (Figure 2A) or 1 µg/ml (Figures 2B-C) in 0.1% BSA in PBST, overnight at 4°C; detected with HRP-labelled anti-HA-tag antibody; conditions: both partners purified
T4 construct: timothy grass pollen allergen Phl p 5, isoallergen Phl p 5.0101; also called major grass pollen allergen; source: bought: Biomay AG (recombinant)
T4 chain: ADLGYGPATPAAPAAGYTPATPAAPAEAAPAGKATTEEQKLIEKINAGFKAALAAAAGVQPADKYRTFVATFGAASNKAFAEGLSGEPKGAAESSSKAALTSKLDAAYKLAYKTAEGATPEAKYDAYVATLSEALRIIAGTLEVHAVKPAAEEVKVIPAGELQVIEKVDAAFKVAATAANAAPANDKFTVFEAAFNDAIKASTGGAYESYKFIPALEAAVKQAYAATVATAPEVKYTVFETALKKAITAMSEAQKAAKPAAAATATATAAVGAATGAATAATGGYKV

[7] = molecular target: T5, recombinant Car b 1.0109 (hornbeam) (Carpinus betulus, isoallergen Car b …, UniProt B6RQR6, strain); experiment: as above; conditions: both partners purified
T5 construct: hornbeam pollen allergen Car b 1, isoallergen Car b 1.0109; source: recombinant; provided by Prof; Barbara Bohle (IPA, MUV)

[8] = molecular target: T6, natural Cor a 1 in hazel pollen extract (hazel (endogenous in hazel pollen)); experiment: far-Western, overlay or dot blot; pollen extracts separated by reducing SDS-PAGE, blotted on nitrocellulose; strips incubated with Nb32 (1 µg/ml) or Nb32ILZ (1.15 µg/ml) in Buffer A at 4°C overnight; detected with HRP-labelled anti-HA-tag antibody; conditions: one partner purified
T6 construct: natural Cor a 1 of hazel pollen extract; Unpurified extract; band at around 17 kDa on blots; source: endogenous, hazel pollen (Allergon) extract
T6 chain: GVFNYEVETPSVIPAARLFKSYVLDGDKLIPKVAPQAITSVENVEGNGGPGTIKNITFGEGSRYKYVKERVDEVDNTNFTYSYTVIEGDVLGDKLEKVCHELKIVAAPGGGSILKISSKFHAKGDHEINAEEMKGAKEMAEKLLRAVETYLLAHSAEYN

B1: Bet v 1-specific nanobody monomer Nb32 (VHH)
VHH: QVQLVESGGGSVQSGGSLRLSCAASGYTYSSYCMAWFRQAPGKKREGVAAIDTDGSTDYADSVKGRFAISQDNAKNTLYLQMNSLKPEDTAMYYCAAYGGSCRRGTGSGYWGQGTQVTVSS
notes: as the chain of m1 (Nb32ILZ) without the ILZ domain: Nb32 VHH and hinge; also called Nb32 monomer; not shown: HA, C-terminal, kept; His6, C-terminal, kept
- percent inhibition of patients' IgE binding [1]: 65%
- percent inhibition of patients' IgE binding [2]: 48%
- koff [3]: 9.9e-05 s⁻¹
- koff [4]: 0.0001 s⁻¹
- koff [5]: 0.00021 s⁻¹
- binding result [6]: no binding
- binding result [7]: binds
- binding result [8]: binds
